What was measured:
[1] = target: recombinant purified multimeric HIV-1 CA tubes assembled from cross-linked CA hexamers (CA A14C/E45C) (HIV-1 (NL4-3))
[2] = target: recombinant purified multimeric HIV-1 CA tubes assembled from cross-linked CA hexamers (CA A14C/E45C) (HIV-1 (NL4-3)); experiment: co-sedimentation; 20 μL CA tubes (~1.4 μM) mixed with 80 μL clarified HEK293T whole-cell lysate (1.5 mg/mL) in CA binding buffer (10 mM Tris pH 7.4, 1.5 mM MgCl2, 10 mM KCl), 1 h at room temperature; 21,000 x g for 8 min at 4°C; NUP153C detected with anti-HA, signals normalized to input
[3] = target: recombinant purified multimeric HIV-1 CA tubes assembled from cross-linked CA hexamers (CA A14C/E45C) (HIV-1 (NL4-3)); experiment: cross-linking; disulfide cross-linking of purified CA A14C/E45C by dialysis in assembly buffer (25 mM Tris-Cl pH 8.0, 1 M NaCl) with falling β-ME at 4°C; hexamers assessed by SDS-PAGE, tubes by transmission electron microscopy

Q: How did the HIV-GFP transduction of HEK293T cells expressing TRIM-NUP153C, GFP-positive cells relative to the no TRIM control (flow cytometry) [1] turn out when “TRIM-NUP153C(human)-HA, wild type (from UniProt Q0PF16 1-304; P49790 896-1475)” was run?
A: The HIV-GFP transduction of HEK293T cells expressing TRIM-NUP153C, GFP-positive cells relative to the no TRIM control (flow cytometry) was 53%.

Q: And the percent detected in the pellet fraction with CA tubes [2]?
A: The percent detected in the pellet fraction with CA tubes was 46%.

Q: How did the HIV-GFP transduction of HEK293T cells expressing TRIM-NUP153C, relative percentage of GFP-positive cells [1] turn out when “TRIM-NUP153C-HA F1415M (from UniProt Q0PF16 1-304; P49790 896-1475)” was run?
A: Its HIV-GFP transduction of HEK293T cells expressing TRIM-NUP153C, relative percentage of GFP-positive cells is 52%.

Q: Which HIV-GFP transduction of HEK293T cells expressing TRIM-NUP153C, relative percentage of GFP-positive cells [1] does the source give for “TRIM-NUP153C-HA F1417Y (from UniProt Q0PF16 1-304; P49790 896-1475)” here?
A: The HIV-GFP transduction of HEK293T cells expressing TRIM-NUP153C, relative percentage of GFP-positive cells was 77.9%.

Q: “TRIM-NUP153C-HA G1413M (from UniProt Q0PF16 1-304; P49790 896-1475)” was tested. Which HIV-GFP transduction of HEK293T cells expressing TRIM-NUP153C, relative percentage of GFP-positive cells [1] did it give?
A: Its HIV-GFP transduction of HEK293T cells expressing TRIM-NUP153C, relative percentage of GFP-positive cells is 61.7%.

Q: Which percent bound to CA tubes (cosedimented) [2] does the source give for “TRIM-NUP153C-HA G1413W (from UniProt Q0PF16 1-304; P49790 896-1475)” here?
A: The percent bound to CA tubes (cosedimented) was 59%.

Q: For “TRIM-NUP153C-HA G1418A (from UniProt Q0PF16 1-304; P49790 896-1475)”, which HIV-GFP transduction of HEK293T cells expressing TRIM-NUP153C, relative percentage of GFP-positive cells [1] is on record?
A: The HIV-GFP transduction of HEK293T cells expressing TRIM-NUP153C, relative percentage of GFP-positive cells was 79%.

Q: How did the HIV-GFP transduction of HEK293T cells expressing TRIM-NUP153C, relative percentage of GFP-positive cells; restriction significantly different from wild type [1] turn out when “TRIM-NUP153C-HA P1411M (from UniProt Q0PF16 1-304; P49790 896-1475)” was run?
A: Its HIV-GFP transduction of HEK293T cells expressing TRIM-NUP153C, relative percentage of GFP-positive cells; restriction significantly different from wild type is 67.9%.

Q: Which HIV-GFP transduction of HEK293T cells expressing TRIM-NUP153C, relative percentage of GFP-positive cells [1] does the source give for “TRIM-NUP153C-HA S1412M (from UniProt Q0PF16 1-304; P49790 896-1475)” here?
A: The HIV-GFP transduction of HEK293T cells expressing TRIM-NUP153C, relative percentage of GFP-positive cells was 64.1%.

Q: How did the percent bound to CA tubes (cosedimented) [2] turn out when “TRIM-NUP153C-HA S1412P (from UniProt Q0PF16 1-304; P49790 896-1475)” was run?
A: The percent bound to CA tubes (cosedimented) was 63%.

Q: Which HIV-GFP transduction of HEK293T cells expressing TRIM-NUP153C, relative percentage of GFP-positive cells [1] does the source give for “TRIM-NUP153C-HA T1416M (from UniProt Q0PF16 1-304; P49790 896-1475)” here?
A: The HIV-GFP transduction of HEK293T cells expressing TRIM-NUP153C, relative percentage of GFP-positive cells was 86.8%.

Q: “TRIM-NUP153C-HA V1414I (from UniProt Q0PF16 1-304; P49790 896-1475)” was tested. Which HIV-GFP transduction of HEK293T cells expressing TRIM-NUP153C, relative percentage of GFP-positive cells [1] did it give?
A: Its HIV-GFP transduction of HEK293T cells expressing TRIM-NUP153C, relative percentage of GFP-positive cells is 63.9%.

Q: How did the stoichiometry N [3] turn out when “recombinant purified multimeric HIV-1 CA tubes assembled from cross-linked CA hexamers (CA A14C/E45C) (natural protein)” was run?
A: The stoichiometry N was 6.

Reference: PMC9599535
